Tests used:
[1] = target: T1, huIL1RAP ECD recombinant protein (human, UniProt Q9NPH3 21-367); assay: Octet BLI, antibody on Protein A biosensor, recombinant huIL1RAP ECD
T1 construct: also called recombinant human IL1RAP-ECD; recombinant human IL1RAP; not shown: C-terminal histidine tag for purification
Protocol: Affinity: The affinity of antibodies to various recombinant IL1RAP protein was determined on an Octet Red™ instrument. After loading reagents into a 96-well plate, the Octet Red™ with Protein A-conjugated biosensors was programmed as follows: 30 seconds for baseline #1; 120 seconds to immobilize the antibody; 30 seconds for baseline #2; 300 seconds for association of antibody to recombinant IL1RAP; and 300-600 seconds for dissociation of recombinant IL1RAP from the antibody.

[2] = target: T1, huIL1RAP ECD recombinant protein; assay: affinity for human IL1RAP (Octet); Table 7 prints 1.4 nM for the same antibody
[3] = target: T2, rat IL1RAP (Met1-Val570 plus Myc-DDK) on transfected 293 cells (Rattus norvegicus, UniProt Q63621 21-570); assay: flow cytometry on 293 cells expressing rat IL1RAP (293-puro-ratIL1RAP) vs 293T-puro [cont.]
T2 construct: whole, on cells; also called RR213032
Protocol: (§1) Staining for flow cytometry was performed in 1× cold PBS with 0.5% BSA. Primary antibodies (1 ug/ml) were incubated with live cells on ice for 30 minutes, after a brief wash, cells were incubated with Alexa Fluro® 488-conjugated anti-human IgG secondary antibody @1:1000 (709-546-149, Jackson ImmunoResearch). Acquisition of the data was performed on a MACSQuant® Flow Cytometers (Miltenyi Biotec) and analyzed with FlowJo software.

[4] = target: T3, mouse IL1RAP (Met1-Val570 plus Myc-DDK) on transfected 293 cells (Mus musculus, UniProt Q61730 21-570); assay: flow cytometry on 293 cells expressing mouse IL1RAP (293-puro-mouseIL1RAP) vs 293T-puro [cont.]
T3 construct: whole, on cells; also called MR223729
Protocol: as §1

[5] = target: T4, human IL1RAP on IL1RAP positive human cell lines (EOL-1, Karpas 299; HEK-Blue reporter cells) (human, UniProt Q9NPH3 21-570); assay: cell-based or functional assay
[6] = target: T4, human IL1RAP on IL1RAP positive human …; assay: cell-based or functional assay; remark: listed apart in the source
[7] = target: T4, human IL1RAP on IL1RAP positive human …; assay: cell-based or functional assay; remark: listed apart in the source
[8] = target: T4, human IL1RAP on IL1RAP positive human …; assay: cell-based or functional assay; remark: listed apart in the source
[9] = target: T2, rat IL1RAP (Met1-Val570 plus Myc-DDK) …; assay: flow cytometry on 293 cells expressing rat IL1RAP (293-puro-ratIL1RAP) vs 293T-puro
Protocol: as §1

[10] = target: T3, mouse IL1RAP (Met1-Val570 plus Myc-DDK) …; assay: flow cytometry on 293 cells expressing mouse IL1RAP (293-puro-mouseIL1RAP) vs 293T-puro
Protocol: as §1

[11] = target: T2, rat IL1RAP (Met1-Val570 plus Myc-DDK) …; assay: flow cytometry on 293 cells expressing rat IL1RAP (293-puro-ratIL1RAP) vs 293T-puro; 1 ug/ml antibody, Alexa 488 anti-human IgG secondary
Protocol: as §1

T3 sequence (Q61730 21-570): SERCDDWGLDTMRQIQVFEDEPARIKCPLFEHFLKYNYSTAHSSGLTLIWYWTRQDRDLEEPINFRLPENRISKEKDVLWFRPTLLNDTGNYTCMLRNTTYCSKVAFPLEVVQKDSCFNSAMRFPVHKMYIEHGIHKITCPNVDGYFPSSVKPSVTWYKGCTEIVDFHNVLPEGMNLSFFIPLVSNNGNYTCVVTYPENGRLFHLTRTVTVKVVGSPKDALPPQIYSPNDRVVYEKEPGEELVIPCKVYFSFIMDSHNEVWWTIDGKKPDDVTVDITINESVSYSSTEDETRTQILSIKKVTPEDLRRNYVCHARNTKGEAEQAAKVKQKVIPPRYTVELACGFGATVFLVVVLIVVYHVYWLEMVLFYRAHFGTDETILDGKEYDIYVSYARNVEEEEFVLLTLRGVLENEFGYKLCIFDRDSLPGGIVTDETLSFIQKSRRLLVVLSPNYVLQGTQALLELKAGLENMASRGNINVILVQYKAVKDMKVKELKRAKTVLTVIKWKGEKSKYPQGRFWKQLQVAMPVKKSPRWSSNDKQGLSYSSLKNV
T2 sequence (Q63621 21-570): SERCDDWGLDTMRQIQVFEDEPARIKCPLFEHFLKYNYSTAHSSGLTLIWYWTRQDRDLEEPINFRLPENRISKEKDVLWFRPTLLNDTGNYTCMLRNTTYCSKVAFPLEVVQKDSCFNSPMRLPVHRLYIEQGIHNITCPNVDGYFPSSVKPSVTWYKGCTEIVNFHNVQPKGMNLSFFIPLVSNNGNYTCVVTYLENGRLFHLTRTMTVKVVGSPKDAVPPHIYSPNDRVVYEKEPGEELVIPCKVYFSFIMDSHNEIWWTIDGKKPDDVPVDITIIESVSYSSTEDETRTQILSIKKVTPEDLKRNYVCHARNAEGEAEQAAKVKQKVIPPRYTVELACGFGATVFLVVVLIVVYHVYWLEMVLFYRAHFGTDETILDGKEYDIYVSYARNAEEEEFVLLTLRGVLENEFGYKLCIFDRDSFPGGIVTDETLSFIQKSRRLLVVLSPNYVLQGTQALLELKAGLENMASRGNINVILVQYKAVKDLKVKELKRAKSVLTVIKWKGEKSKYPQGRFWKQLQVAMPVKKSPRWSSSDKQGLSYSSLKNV

Binder	Kd [1]	Kd [2]	binding result [3]	binding result [4]	EC50 against IL-1alpha signaling, IL-1 reporter assay [5]	EC50 against IL-1beta signaling, IL-1 reporter assay [5]	EC50, inhibition of signalling by 0.5 ng/ml IL-1beta in HEK-Blue IL-1beta reporter cells (Abs. 620 nM) [6]	EC50, inhibition of signalling by 0.5 ng/ml IL-1a (IL-1alpha) in the HEK-Blue IL-1 reporter assay (Abs. 620 nM) [7]	EC50, inhibition of signalling by 0.5 ng/ml IL-33 in HEK-Blue IL-33 reporter cells (Abs. 620 nm); the curve levels off at about 0.4, not at 0 [8]	binding result [9]	binding result [10]	binding result [11]
32C12_21A4 (antibody, V domains shown) VH: QVQLVESGGGVVQPGRSLRLSCAASGFTFRNYGIHWVRQAPGKGLEWVAVIWYDGSNKFYADSVKGRFTISRDNSKNTLYLQMNSLRVEDTAVYYCAREEGIAVAPFDYWGQGTLVTVSS VL: DIQMTQSPSSLSASVGDRVAITCRANQSIASYLNWYQQKPGKAPKLLIYGASSLQNGVPSRFSGSGSRTDFTLTISSLQPEDFATYYCQQSYSTEITFGQGTRLEIK	1400 pM	1000 pM	no binding (tested: 1 ug/ml)	no binding (tested: 1 ug/ml)								
37E10_15B5 (antibody, V domains shown, also called BFB759) VH: QVQLVESGGGVVQPGRSLRLSCAASGFTFRSHGMHWVRQAPGKGLEWVAVIWYDGSSEYYADSVKGRFTISRDNSKNTLYLQMNSLRAEDTAVYYCARENVYGSGWFFDYWGQGTLVTVSS VL: EIVMTQSPATLSVSPGERASLSCRASQSVGSNLAWYQQRPGQAPRLLIFGASTRATGIPARFSGSRSGTEFTLTISSLQSEDFALYYCQQYNNWPPWTFGQGTKLEIK	300 pM		no binding (tested: 1 ug/ml)	no binding (tested: 1 ug/ml)	< 1000 pM	< 1000 pM	150 pM	190 pM	320 pM			
44E5_15C5 (antibody, V domains shown) VH: QVQLVESGGGVVQPGRSLRLSCAASGFTFRSHGMHWVRQAPGKGLEWVAVIWYDGSSDYYADSVKGRFTISRDNSKNTLFLQMNSLSAEDTAVYYCARENVYGSGWFFDYWGQGTLVTVSS VL: EIVMTQSPATLSVSPGERASLSCRASQSVGSNLAWYQQKPGQAPRLLIFGASTRATGIPARFSGSRSGTEFTLTISSLQSEDFALYYCQQYNNWPPWTFGQGTKLEIK	400 pM		no binding (tested: 1 ug/ml)	no binding (tested: 1 ug/ml)	< 1000 pM	< 1000 pM	170 pM	180 pM	440 pM			
16H2_17D2 (antibody, V domains shown) VH: QVQLVESGGGVVQPGGSLRLSCAASGFTFSSHGMHWVRQAPGKGLEWVAVIWYDGSNKFYTDSVQGRFTISRDNSKNTLNLQMNSLRAEDTAVYYCAREGLRAGYYFDFWGQGTLVTVSS VL: DIQMTQSPSSLSASVGDRVTITCRASQRISFYSNWYQQKPGKAPKLLIYAASSLQSGVPSRFSGSGSGTDFTLTISSLQPEDFATYFCQQSHSTPLTFGGGTKLEIK	200 pM						100 pM	90 pM		no binding (tested: 1 ug/ml)	no binding (tested: 1 ug/ml)	
24G3_17C5 (antibody, V domains shown, Recombinant human antibody) VH: EVQLLESGGGLVQRGGSLRLSCAASGFTFSSYAMSWVRQAPGKGLEWVSSISGSGDSTNYADSVKGRFTISRDNSKNTLHLQMNSLRAEDTAVYYCVRDYYYGMDVWGHGTTVTVSS VL: EIVLTQSPATLSLSPGERATLSCRASQSVNSYLAWYQQKPGQAPRLLIYDASNRATGIPARFSGSGSGTDFTLTISSLEPEDFAVYYCQQRSYWPITFGQGTRLEIK	37000 pM											binds
38E10_21C3 (antibody, V domains shown, Recombinant human antibody) VH: EVQLLESGGGLVQPGGSLRLSCAASGFTFSNYAMTWVRQAPGKGLEWVSSISISRAGTYYADSVKGRFTISRDNSKNTLNLQMNSLRAEDTAEYYCAREYYYGMDVWGQGTTVTVSS VL: EIVLTQSPATLSLSPGERATLSCRASQSVSSYLAWYQQKPGQTPRLLIYDASNRATGIPARFSGSGSGTDFTLTISSLETEDFAVYYCQQLINWPLTFGGGTKLEIK	2000 pM									no binding (tested: 1 ug/ml)	no binding (tested: 1 ug/ml)	

— US20260008856A1 (BLUEFIN BIOMEDICINE, published 2026)
